Experimental findings from patent US20160281104A1 (KOREA ATOMIC ENERGY RESEARCH INSTITUTE, published 2016) are described below.

This data set concerns the molecule itself. The data set can be described thus: size exclusion chromatography (Superdex 200) and native PAGE; self-association. For orientation: In gel filtration, larger molecules generally elute earlier.

B1: alkyl hydroperoxide reductase subunit F (AhpF) protein of Pseudomonas aeruginosa (enzyme)
chain: MLDANLKTQLKAYLEKVSQPFEIVASLDDSDKSRELLGLLQDIVGLTDKITLKTDGSDARKPSFSLNRPGADIGLRFAGIPMGHEFTSLVLALLQVGGHPSKLDADVIEQVKGIEGTFEFETYFSLSCQNCPDVVQALNLMAVLNPNIRHVAIDGALFQDEVEARQIMSVPSIYLNGEVFGQGRMGVEEILAKIDTGAAARDAEKLTARDAFDVLVVGGGPAGAAAAIYAARKGIRTGVAAERFGGQVLDTMAIENFISVQETEGPKLARALEEHVRHYEVDIMNLQRASKLVPAKNAGELHEVRFESGGSLKAKTLILATGARWREMGVPGEQEYKAKGVCFCPHCDGPLFKGKRVAVIGGGNSGVEAAIDLAGIVAHVTLLEFDSKLRADAVLQRKLYSLPNVEVITSALTSEVKGDGQKVTGLVYKDRNSEEFKSIELEGIFVQIGLLPNTEWLKGSVELSPRGEIIVDARGETSLPGIFAAGDVTTVPYKQIVIAVGEGAKASLSAFDHLIRTSAPE
notes: Recombinant protein cloned from P. aeruginosa PAO1 genomic DNA and expressed from pET28a in E. coli BL21(DE3); It was purified on Ni-NTA and released from the resin with thrombin, so the His tag was cleaved; also called PaAhpF; AhpF(PA)
For the protein B1, the binding result is given as “binds”.
